From publication PMC9482650, “Quantitative fragmentomics allow affinity mapping of interactomes” (Nature Communications, 2022)

The binders below were run against T1, PCLO, Q9Y6V0 (assay: holdup assay). Conditions: plain residues with an end cap or a label only (N-terminal biotin on a linker: ado-ado).
T1 sequence (Q9Y6V0 4491-4600, limits assumed, looked up): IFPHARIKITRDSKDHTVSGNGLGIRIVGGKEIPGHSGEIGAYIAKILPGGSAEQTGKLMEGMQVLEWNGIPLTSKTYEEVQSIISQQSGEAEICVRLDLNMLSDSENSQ
Design: key: below the threshold = too weak to quantify, mostly under pKd 3.1 to 4
With SNAGNTATKA [NOSTRIN, Q8IVI9] the pKd was “below the threshold”.

What follows are binders tested against GRIP2_7, Q9C0E4 (assay: holdup assay). Conditions: plain residues with an end cap or a label only (N-terminal biotin on a linker: ado-ado).
GRIP2_7, Q9C0E4, sequence (Q9C0E4 934-1023): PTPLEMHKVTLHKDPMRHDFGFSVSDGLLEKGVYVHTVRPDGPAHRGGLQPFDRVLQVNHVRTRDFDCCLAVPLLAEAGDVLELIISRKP
Design: key: below the threshold = too weak to quantify, mostly under pKd 3.1 to 4
With SNAGNTATKA [NOSTRIN, Q8IVI9] the pKd was “below the threshold”.

The binders below were run against T2, LRRC7, Q96NW7 (assay: holdup assay). Conditions: plain residues with an end cap or a label only (N-terminal biotin on a linker: ado-ado).
T2 sequence (Q96NW7 1440-1537, limits assumed, looked up): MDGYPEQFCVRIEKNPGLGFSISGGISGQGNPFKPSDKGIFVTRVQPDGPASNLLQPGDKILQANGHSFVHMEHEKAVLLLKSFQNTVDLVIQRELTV
Design: key: below the threshold = too weak to quantify, mostly under pKd 3.1 to 4
With SNAGNTATKA [NOSTRIN, Q8IVI9] the pKd was “below the threshold”.

The binders below were run against MAGI2_4, Q86UL8 (assay: holdup assay). Conditions: plain residues with an end cap or a label only (N-terminal biotin on a linker: ado-ado).
MAGI2_4, Q86UL8, sequence (Q86UL8 772-865): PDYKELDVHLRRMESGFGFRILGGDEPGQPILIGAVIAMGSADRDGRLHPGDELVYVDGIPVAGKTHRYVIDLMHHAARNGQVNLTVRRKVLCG
Design: key: below the threshold = too weak to quantify, mostly under pKd 3.1 to 4
SNAGNTATKA [NOSTRIN, Q8IVI9] was tested, and the pKd was “below the threshold”.

What follows are binders tested against LIMK2, P53671 (assay: holdup assay). Conditions: plain residues with an end cap or a label only (N-terminal biotin on a linker: ado-ado).
LIMK2, P53671, sequence (P53671 143-248): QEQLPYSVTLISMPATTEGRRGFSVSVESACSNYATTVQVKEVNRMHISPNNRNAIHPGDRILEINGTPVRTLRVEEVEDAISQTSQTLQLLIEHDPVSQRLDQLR
Design: key: below the threshold = too weak to quantify, mostly under pKd 3.1 to 4
For SNAGNTATKA [NOSTRIN, Q8IVI9], the pKd was “below the threshold”.

These binders were tested against T3, MPP7, Q5T2T1 (assay: holdup assay). Conditions: plain residues with an end cap or a label only (N-terminal biotin on a linker: ado-ado).
T3 sequence (Q5T2T1 134-230, limits assumed, looked up): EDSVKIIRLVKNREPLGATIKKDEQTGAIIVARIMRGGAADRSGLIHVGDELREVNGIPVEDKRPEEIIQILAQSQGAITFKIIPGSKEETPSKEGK
Design: key: below the threshold = too weak to quantify, mostly under pKd 3.1 to 4
With SNAGNTATKA [NOSTRIN, Q8IVI9] the pKd was “below the threshold”.

The binders below were run against DLG2_3, Q15700 (assay: holdup assay). Conditions: plain residues with an end cap or a label only (N-terminal biotin on a linker: ado-ado).
Design: key: below the threshold = too weak to quantify, mostly under pKd 3.1 to 4
In the case of SNAGNTATKA [NOSTRIN, Q8IVI9], the pKd is reported as 3.6.

What follows are binders tested against T4, SYNJ2BP, P57105 (assay: holdup assay). Conditions: plain residues with an end cap or a label only (N-terminal biotin on a linker: ado-ado).
T4 sequence (P57105 8-110, limits assumed, looked up): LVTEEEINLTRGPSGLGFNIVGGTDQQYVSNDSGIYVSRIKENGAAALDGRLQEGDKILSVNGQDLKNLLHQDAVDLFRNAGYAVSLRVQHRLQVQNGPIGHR
Design: key: below the threshold = too weak to quantify, mostly under pKd 3.1 to 4
SNAGNTATKA [NOSTRIN, Q8IVI9] was tested, and the pKd was “below the threshold”.

Each binder was assayed against MAGI2_3, Q86UL8 (assay: holdup assay). Conditions: plain residues with an end cap or a label only (N-terminal biotin on a linker: ado-ado).
MAGI2_3, Q86UL8, sequence (Q86UL8 600-682): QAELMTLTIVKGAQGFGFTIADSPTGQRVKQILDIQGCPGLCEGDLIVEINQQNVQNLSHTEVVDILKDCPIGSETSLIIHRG
Design: key: below the threshold = too weak to quantify, mostly under pKd 3.1 to 4
SNAGNTATKA [NOSTRIN, Q8IVI9] was tested, and the pKd was “below the threshold”.

Each binder was assayed against T5, NHERF3_4, Q5T2W1 (assay: holdup assay). Conditions: plain residues with an end cap or a label only (N-terminal biotin on a linker: ado-ado).
T5 sequence (Q5T2W1 373-468, limits assumed, looked up): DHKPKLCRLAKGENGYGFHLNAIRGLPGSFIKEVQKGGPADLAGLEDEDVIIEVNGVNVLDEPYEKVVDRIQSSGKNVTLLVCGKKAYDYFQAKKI
Design: key: below the threshold = too weak to quantify, mostly under pKd 3.1 to 4
In the case of SNAGNTATKA [NOSTRIN, Q8IVI9], the pKd is reported as “below the threshold”.

What follows are binders tested against PDZRN4_1, Q6ZMN7 (assay: holdup assay). Conditions: plain residues with an end cap or a label only (N-terminal biotin on a linker: ado-ado).
PDZRN4_1, Q6ZMN7, sequence (Q6ZMN7 213-318): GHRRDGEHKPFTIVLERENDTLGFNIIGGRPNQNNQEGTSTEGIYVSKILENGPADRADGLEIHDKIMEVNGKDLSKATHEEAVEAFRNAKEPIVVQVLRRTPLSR
Design: key: below the threshold = too weak to quantify, mostly under pKd 3.1 to 4
SNAGNTATKA [NOSTRIN, Q8IVI9] was tested, and the pKd was “below the threshold”.

Each binder was assayed against DLG1_2, Q12959 (assay: holdup assay). Conditions: plain residues with an end cap or a label only (N-terminal biotin on a linker: ado-ado).
DLG1_2, Q12959, sequence (Q12959 314-412): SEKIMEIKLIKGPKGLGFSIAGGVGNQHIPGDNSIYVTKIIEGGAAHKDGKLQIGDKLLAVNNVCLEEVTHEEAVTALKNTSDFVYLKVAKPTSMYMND
Design: key: below the threshold = too weak to quantify, mostly under pKd 3.1 to 4
For SNAGNTATKA [NOSTRIN, Q8IVI9], the pKd was “below the threshold”.

The binders below were run against T6, GRIP1_7, Q9Y3R0 (assay: holdup assay). Conditions: plain residues with an end cap or a label only (N-terminal biotin on a linker: ado-ado).
T6 sequence (Q9Y3R0 999-1096, limits assumed, looked up): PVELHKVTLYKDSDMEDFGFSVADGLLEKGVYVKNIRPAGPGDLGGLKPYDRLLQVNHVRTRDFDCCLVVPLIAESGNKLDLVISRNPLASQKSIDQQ
Design: key: below the threshold = too weak to quantify, mostly under pKd 3.1 to 4
With SNAGNTATKA [NOSTRIN, Q8IVI9] the pKd was “below the threshold”.

These binders were tested against DLG5_1, Q8TDM6 (assay: holdup assay). Conditions: plain residues with an end cap or a label only (N-terminal biotin on a linker: ado-ado).
DLG5_1, Q8TDM6, sequence (Q8TDM6 617-713): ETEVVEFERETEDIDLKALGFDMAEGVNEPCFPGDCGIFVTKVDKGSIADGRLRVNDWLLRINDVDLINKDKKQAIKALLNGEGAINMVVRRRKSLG
Design: key: below the threshold = too weak to quantify, mostly under pKd 3.1 to 4
For SNAGNTATKA [NOSTRIN, Q8IVI9], the pKd was “below the threshold”.

What follows are binders tested against T7, RHPN1, Q8TCX5 (assay: holdup assay). Conditions: plain residues with an end cap or a label only (N-terminal biotin on a linker: ado-ado).
T7 sequence (Q8TCX5 508-602, limits assumed, looked up): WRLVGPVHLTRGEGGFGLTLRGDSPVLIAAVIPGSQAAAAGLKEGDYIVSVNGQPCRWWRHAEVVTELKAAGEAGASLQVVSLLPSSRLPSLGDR
Design: key: below the threshold = too weak to quantify, mostly under pKd 3.1 to 4
In the case of SNAGNTATKA [NOSTRIN, Q8IVI9], the pKd is reported as “below the threshold”.

What follows are binders tested against T8, NHERF3_3, Q5T2W1 (assay: holdup assay). Conditions: plain residues with an end cap or a label only (N-terminal biotin on a linker: ado-ado).
T8 sequence (Q5T2W1 238-333, limits assumed, looked up): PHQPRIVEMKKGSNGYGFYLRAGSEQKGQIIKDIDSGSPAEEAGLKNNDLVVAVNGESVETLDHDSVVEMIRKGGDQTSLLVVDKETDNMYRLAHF
Design: key: below the threshold = too weak to quantify, mostly under pKd 3.1 to 4
SNAGNTATKA [NOSTRIN, Q8IVI9] was tested, and the pKd was “below the threshold”.

These binders were tested against T9, MPDZ_5, O75970 (assay: holdup assay). Conditions: plain residues with an end cap or a label only (N-terminal biotin on a linker: ado-ado).
T9 sequence (O75970 695-796, limits assumed, looked up): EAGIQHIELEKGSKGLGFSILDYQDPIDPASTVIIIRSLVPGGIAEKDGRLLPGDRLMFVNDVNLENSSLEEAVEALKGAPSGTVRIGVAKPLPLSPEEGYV
Design: key: below the threshold = too weak to quantify, mostly under pKd 3.1 to 4
With SNAGNTATKA [NOSTRIN, Q8IVI9] the pKd was “below the threshold”.

These binders were tested against T10, GRIP1_3, Q9Y3R0 (assay: holdup assay). Conditions: plain residues with an end cap or a label only (N-terminal biotin on a linker: ado-ado).
T10 sequence (Q9Y3R0 247-346, limits assumed, looked up): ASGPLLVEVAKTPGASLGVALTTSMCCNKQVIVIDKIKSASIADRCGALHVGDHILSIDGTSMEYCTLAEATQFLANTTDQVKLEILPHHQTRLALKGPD
Design: key: below the threshold = too weak to quantify, mostly under pKd 3.1 to 4
In the case of SNAGNTATKA [NOSTRIN, Q8IVI9], the pKd is reported as “below the threshold”.

These binders were tested against GRID2IP_2, A4D2P6 (assay: holdup assay). Conditions: plain residues with an end cap or a label only (N-terminal biotin on a linker: ado-ado).
GRID2IP_2, A4D2P6, sequence (A4D2P6 272-370): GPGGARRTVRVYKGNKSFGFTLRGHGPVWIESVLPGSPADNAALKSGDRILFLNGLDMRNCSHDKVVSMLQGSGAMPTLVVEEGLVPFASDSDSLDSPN
Design: key: below the threshold = too weak to quantify, mostly under pKd 3.1 to 4
In the case of SNAGNTATKA [NOSTRIN, Q8IVI9], the pKd is reported as “below the threshold”.

The binders below were run against MAST1, Q9Y2H9 (assay: holdup assay). Conditions: plain residues with an end cap or a label only (N-terminal biotin on a linker: ado-ado).
MAST1, Q9Y2H9, sequence (Q9Y2H9 962-1065): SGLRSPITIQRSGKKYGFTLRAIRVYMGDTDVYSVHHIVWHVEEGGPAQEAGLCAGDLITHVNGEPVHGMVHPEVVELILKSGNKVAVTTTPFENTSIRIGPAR
Design: key: below the threshold = too weak to quantify, mostly under pKd 3.1 to 4
For SNAGNTATKA [NOSTRIN, Q8IVI9], the pKd was “below the threshold”.

What follows are binders tested against Inadl_5, Q8NI35 (assay: holdup assay). Conditions: plain residues with an end cap or a label only (N-terminal biotin on a linker: ado-ado).
Inadl_5, Q8NI35, sequence (Q8NI35 673-780): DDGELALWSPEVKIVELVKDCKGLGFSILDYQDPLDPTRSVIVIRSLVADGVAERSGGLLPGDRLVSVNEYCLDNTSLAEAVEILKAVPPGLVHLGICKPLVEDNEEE
Design: key: below the threshold = too weak to quantify, mostly under pKd 3.1 to 4
In the case of SNAGNTATKA [NOSTRIN, Q8IVI9], the pKd is reported as “below the threshold”.

Each binder was assayed against T11, TX1BP3, O14907 (assay: holdup assay). Conditions: plain residues with an end cap or a label only (N-terminal biotin on a linker: ado-ado).
T11 sequence (O14907 10-122, limits assumed, looked up): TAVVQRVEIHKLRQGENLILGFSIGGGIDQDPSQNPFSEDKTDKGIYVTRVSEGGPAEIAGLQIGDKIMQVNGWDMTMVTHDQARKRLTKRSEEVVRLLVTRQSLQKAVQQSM
Design: key: below the threshold = too weak to quantify, mostly under pKd 3.1 to 4
For SNAGNTATKA [NOSTRIN, Q8IVI9], the pKd was “below the threshold”.

Each binder was assayed against HTRA1, Q92743 (assay: holdup assay). Conditions: plain residues with an end cap or a label only (N-terminal biotin on a linker: ado-ado).
HTRA1, Q92743, sequence (Q92743 360-477): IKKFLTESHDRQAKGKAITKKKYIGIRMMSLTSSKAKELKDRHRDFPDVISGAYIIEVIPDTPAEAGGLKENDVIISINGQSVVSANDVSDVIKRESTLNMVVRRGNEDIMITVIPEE
Design: key: below the threshold = too weak to quantify, mostly under pKd 3.1 to 4
For SNAGNTATKA [NOSTRIN, Q8IVI9], the pKd was “below the threshold”.

Each binder was assayed against T12, SNTA1, Q13424 (assay: holdup assay). Conditions: plain residues with an end cap or a label only (N-terminal biotin on a linker: ado-ado).
T12 sequence (Q13424 82-180, limits assumed, looked up): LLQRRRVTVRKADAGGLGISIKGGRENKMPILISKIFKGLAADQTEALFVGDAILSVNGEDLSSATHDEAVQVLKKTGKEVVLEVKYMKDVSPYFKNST
Design: key: below the threshold = too weak to quantify, mostly under pKd 3.1 to 4
With SNAGNTATKA [NOSTRIN, Q8IVI9] the pKd was “below the threshold”.

These binders were tested against DLG2_2, Q15700 (assay: holdup assay). Conditions: plain residues with an end cap or a label only (N-terminal biotin on a linker: ado-ado).
Design: key: below the threshold = too weak to quantify, mostly under pKd 3.1 to 4
SNAGNTATKA [NOSTRIN, Q8IVI9] was tested, and the pKd was “below the threshold”.
